Measurements reported in US20180021429A1, “ANTICANCER AGENTS OR ANTIMETASTATIC AGENTS USING FSTL1 AND COMBINATION DRUG THEREOF” (PHARMA FOODS INTERNATIONAL CO., LTD., priority 2015, published 2018).
Positions count from the first letter of the chain named. Entries after “also recorded” stand apart in the source; their conditions may differ.

T1: FSTL1 (Homo sapiens, UniProt Q12841)
T1 sequence (Q12841 21-308): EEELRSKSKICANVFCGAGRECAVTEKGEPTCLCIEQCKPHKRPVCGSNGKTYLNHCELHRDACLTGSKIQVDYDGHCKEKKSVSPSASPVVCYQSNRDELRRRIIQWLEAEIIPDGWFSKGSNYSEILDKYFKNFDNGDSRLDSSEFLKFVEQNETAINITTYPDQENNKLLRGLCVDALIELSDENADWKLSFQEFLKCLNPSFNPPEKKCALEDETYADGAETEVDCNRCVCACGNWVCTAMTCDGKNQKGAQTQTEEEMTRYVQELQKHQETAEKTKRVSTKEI

B1: #6-55: chicken-mouse chimeric anti-FSTL1 antibody clone; variable regions SEQ ID NO: 783 (light), 785 (heavy) (antibody, V domains shown)
VH: AVTLDESGGGLQTPGGALSLVCKGSGFTFTSVTMQWVRQAPGKGLEWVASVCSGSSTYYAPAVKGRATISRDNGQSTVRLQLSNLRPEDTGTYYCAKIAGRARWSCTSAAYNIDAWGHGTEVIVSS
VL: ASTQPSSVSAIPGETVKITCSGGGNNYGWYQQRSPGSAPVTVIYYNDNRPSNIPSRFSGSTSGSTSTLTITGVQADDEAIYYCGSWDSNTDSGIFGAGTTLTVL
modifications: mouse constant regions
B2: #5-3: chicken-mouse chimeric anti-FSTL1 antibody clone; variable regions SEQ ID NO: 767 (light), 769 (heavy) (antibody, V domains shown)
VH: AVTLDESGGGLQTPGGALSLVCKGSGFSFSSFNMFWVRQAPGKGLEWVAGIGKDGVPKYGAAVDGRATISKDNGQSTMRLQLNNLRAEDTGTYFCAKAAGGCSYDWCGIYAGDIDTWGHGTEVIVSS
VL: ASTQPSSVSANPGETVKITCSGGSGYYYGWYQQKSPGSVPVTVIYNNNNRPSDIPSRFSGSKSGSTGTLTITGVRAEDEAVYYCGGYDNSGTGIFGAGTTLTVL
modifications: mouse constant regions
B3: #5-8: chicken-mouse chimeric anti-FSTL1 antibody clone; variable regions SEQ ID NO: 771 (light), 773 (heavy) (antibody, V domains shown)
VH: B2 VH with A17G, S28T, A61T, A111T
VL: ASTQPSSVSANPGEAVKITCSGGSGSYYGWYQQKSPGSAPVTVIYNNNQRPSDIPSRFSGSKSGSTATLTITGVQAEDEAVYFCGGYDSSTGHGGIFGAGTTLTVL
modifications: mouse constant regions
B4: #8-4: chicken-mouse chimeric anti-FSTL1 antibody clone; variable regions SEQ ID NO: 795 (light), 797 (heavy) (antibody, V domains shown)
VH: AVTLDESGGGLQTPGGGLSLVCKGSGFTLSSFNMFWVRQAPGKGLEWVAGVGKDGGTAYGAAVDGRATISRDSGQSTVRLQLNNLRAEDTGTYFCAKAAGGCSYSWCGAYVGDLDAWGHGTEVIVSS
VL: B2 VL with T3S, V39A, N48D, R50K, R75Q, A76V, Y83F
modifications: mouse constant regions
B5: #5-2: chicken-mouse chimeric anti-FSTL1 antibody clone; variable regions SEQ ID NO: 763 (light), 765 (heavy) (antibody, V domains shown)
VH: B4 VH with L29F, A58G, R71K, S73N, V78L, F94Y, S105G, A109S, L114I
VL: B3 VL
modifications: mouse constant regions
B6: #8-7: chicken-mouse chimeric anti-FSTL1 antibody clone; variable regions SEQ ID NO: 799 (light), 801 (heavy) (antibody, V domains shown)
VH: B2 VH with A17G, S28T, M78L
VL: B3 VL
modifications: mouse constant regions

Target: T1, FSTL1
Test: Inhibition of activation of tumor cells by FSTL1, RANKL- and CCR2-positive cells in human pancreatic cancer cell line Panc1 (Examples 5, 7, 9, 10, 11)
Assay type: cell-based
Set-up: purchased R&D Systems, Inc. 1694-FN-050
Details: for inhibitory activity against the expansion of RANKL-positive cells and CCR2-positive cells: FSTL1 50 ng/mL
Experimental: It is known that tumor cells activated by stimulation with FSTL1 highly express molecule groups promoting bone metastasis and increase metastatic invasive capacity (Cancer Research 73: 6185, 2013). Thus, 2×10^7 cells/well of a human pancreatic cancer cell line Panc1 were suspended in 1 mL/well of D-MEM medium (GIBCO/Thermo Fisher Scientific Inc. Cat. No. C11885500BT) containing 10% fetal bovine serum, supplemented with 50 ng/mL (final concentration) of FSTL1 (R&D Systems, Inc.) and 10 μg/mL of the anti-FSTL1 antibody (#5-2, #5-8, #5-10, #5-43, #6-55, or #7-34) or its isotype mouse IgG (anti-DNP antibody) as a control antibody “Control”, and cultured under stimulation (6-well plate). 3 days thereafter, the number of cells was counted while the cells were stained with a PE-labeled anti-RANKL antibody (eBioscience Cat. No. 12-6619) and a PE-labeled anti-CCR2 antibody (R&D Systems, Inc. Cat. No. FAB151P) in order to examine the expression of markers indicating bone metastatic properties, and the contents of RANKL-positive cells and CCR2-positive cells were analyzed by flow cytometry using FACScan (Becton, Dickinson and Company) to calculate the numbers of cells per culture. […] Therefore, in Examples below, judgment was made with the number of cells as an index.
(§1) In the same way as in Example 5, a human pancreatic cancer cell line Panc1 was supplemented with 50 ng/mL (final concentration) of FSTL1 (R&D Systems, Inc.) and 10 μg/mL of the anti-FSTL1 antibody (the same clones as in Example 6) or a control antibody and cultured under stimulation. 3 days thereafter, the number of cells was counted while the cells were stained with a PE-labeled anti-RANKL antibody and a PE-labeled anti-CCR2 antibody, and the contents of RANKL-positive cells and CCR2-positive cells were analyzed by flow cytometry using FACScan (Becton, Dickinson and Company) to calculate the numbers of cells per culture (FIG. 67B).
as §1, with “20” for “50”, “FSTL1” for “FSTL1 (R&D Systems, Inc.)”, “(#5-2, #5-8, or #6-55)” for “(the same clones as in Example 6)”, “68B).” for “67B).”
as §1, with “FSTL1” for “FSTL1 (R&D Systems, Inc.)”, “(#5-2, #5-3, #6-55, #7-34, #8-1, #8-4, #8-7, or #8-8)” for “(the same clones as in Example 6)”, “culture.” for “culture (FIG. 67B).”
as §1, with “FSTL1” for “FSTL1 (R&D Systems, Inc.)”, “(#6-55)” for “(the same clones as in Example 6)”, “culture.” for “culture (FIG. 67B).”

[1] = Example 10, antibody 10 μg/mL, 3 days, including newly obtained clones
[2] = Example 7, antibody 10 μg/mL, 3 days

Molecule	inhibitory activity against the expansion of RANKL-positive cells and CCR2-positive cells [1]	inhibitory activity against the expansion of RANKL-positive cells and CCR2-positive cells [2]	also measured
B1	higher inhibitory activity; also recorded: high inhibitory activity		inhibition of cell induction of RANKL-positive cells and CCR2-positive cells (dose dependence test) (Example 11, figure legend): strongly inhibited the cell induction of both RANKL-positive cells and CCR2-positive cells; inhibitory activity against the expansion of RANKL-positive cells and CCR2-positive cells (Example 11, all tested doses 5, 10 and 20 μg/mL, dose dependence not confirmed): ~100%
B2		higher inhibitory activity	
B3		higher inhibitory activity	
B4	higher inhibitory activity; also recorded: high inhibitory activity		
B5	higher inhibitory activity; also recorded: high inhibitory activity		
B6	higher inhibitory activity; also recorded: high inhibitory activity		
